Literature values as cited in PMC10024700.

How the values were obtained:
[1] = target: Cadherin-23 EC1-2 (Mus musculus) (UniProt Q99PF4); test: AUC
[2] = target: Protocadherin-15 EC1-2 (Mus musculus) (UniProt Q99PJ1); test: SPR
[3] = target: Protocadherin-15 EC1-2 (Mus musculus) (UniProt Q99PJ1); test: ITC

- Kd [1]: 18 µM
- Kd [2]: 0.84 µM
- Kd [3]: 2.9 µM
Substance: Cadherin-23 EC1-2 (from UniProt Q99PF4)
